{
  "source": "patent EP3639857B1",
  "about": "“ERYTHROPOIETIN COMPOSITION WITH IMPROVED STABILITY AND METHOD FOR PREPARING SAME” (Hankook Korus Pharmaceutical Co. Ltd., priority 2017, dated 2018)",
  "key": {"[1]": {"assay": "Pharmacokinetics in rat after intravenous administration, erythropoietin in blood by ELISA, non-compartmental analysis", "format": "in vivo", "conditions": "SD rats", "experimental": "Pharmacokinetics were measured by a method of intravenously administrating PEG-EPO conjugates to SD rats (male, 7 weeks old, body weight of 243.53±14.33 g). Specifically, after the administration of 3 µg/kg of EPO, PEG-EPO-TS, or PEG-EPO-Mircera, after 0, 0.5, 1, 2, 4, 8, 24 (1 d), 48 (2 d), 96 (4 d), and 168 ([…]) hours, blood was collected from the rats with an SST tube, centrifuged at 6,000 rpm for 10 minutes at 4°C, and stored at -80°C until the concentration measurement. The concentration of erythropoietin in the blood was measured by ELISA.\nThe pharmacokinetic analysis of the measured concentration results was performed by non-compartmental analysis (NCA), and the analysis was performed with the program of Phoenix WinNonlin 7.0 (Certara USA Inc., Princeton, NJ, USA). Individual NCA parameters were calculated."}, "B6D2F1 mice": {"system": "B6D2F1 mice", "assay": "Pharmacodynamics in mice after intraperitoneal administration, CBC test", "format": "in vivo", "conditions": "for RBC Increase (%) / Reticulocyte (×10^9/L) Increase (%): 7d vs 0d", "experimental": "Pharmacodynamics were measured by a method of intraperitoneally administrating the PEG-EPO conjugates to B6D2F1 mice (female, 7 weeks old, body weight of 20.02±0.88 g). Specifically, 1.25, 2.5, 5, or 20 µg/kg of EPO, PEG-EPO-TS, or PEG-EPO-Mircera drugs were administered, after 7 days, 200 to 300 µl of the blood was collected from the facial vein by using a lancet into a micro EDTA tube (MiniCollect, Greiner Bio One International GmbH), the shaker was used to sufficiently mix the EDTA to prevent coagulation, and then, the CBC test was performed by using the ADVIA 2120i (Siemens AG) equipment within one hour. The results are shown in Table 10 below with the comparison of CBC results before drug administration."}, "[2]": {"conditions": "i.p. 20 µg/kg, 0d (before drug administration)"}},
  "data": [
    {"substance": "PEG-EPO-Mircera: commercially available pegylated EPO (Mircera, Roche Korea Co., Ltd.), comparative group [reference compound]", "values": [
      {"measurement": "concentration of erythropoietin in the blood 0 h", "setting": "[1]; IV 3 µg/kg, 0 h", "value": 0},
      {"measurement": "concentration of erythropoietin in the blood 0.5 h", "setting": "[1]; IV 3 µg/kg, 0.5 h", "value": 8.7},
      {"measurement": "concentration of erythropoietin in the blood 1h", "setting": "[1]; IV 3 µg/kg, 1 h", "value": 7.6},
      {"measurement": "concentration of erythropoietin in the blood 2h", "setting": "[1]; IV 3 µg/kg, 2 h", "value": 6.3},
      {"measurement": "concentration of erythropoietin in the blood 4h", "setting": "[1]; IV 3 µg/kg, 4 h", "value": 6.8},
      {"measurement": "concentration of erythropoietin in the blood 8h", "setting": "[1]; IV 3 µg/kg, 8 h", "value": 4.9},
      {"measurement": "concentration of erythropoietin in the blood 24h", "setting": "[1]; IV 3 µg/kg, 24 h", "value": 3.6},
      {"measurement": "concentration of erythropoietin in the blood 48h", "setting": "[1]; IV 3 µg/kg, 48 h", "value": 2.1},
      {"measurement": "concentration of erythropoietin in the blood 96h", "setting": "[1]; IV 3 µg/kg, 96 h", "value": 0.7},
      {"measurement": "concentration of erythropoietin in the blood 168h", "setting": "[1]; IV 3 µg/kg, 168 h", "value": 0.1},
      {"measurement": "AUCinf", "setting": "[1]; IV 3 µg/kg, NCA, administration to infinity", "value": 288.60, "unit": "ng·h/mL"},
      {"measurement": "AUClast", "setting": "[1]; IV 3 µg/kg, NCA, administration to last measured concentration", "value": 284.59, "unit": "ng·h/mL"},
      {"measurement": "C1", "setting": "[1]; IV 3 µg/kg, NCA, clearance", "value": 1.8707, "unit": "mL/min/kg"},
      {"measurement": "T1/2", "setting": "[1]; IV 3 µg/kg, NCA, half-life", "value": 27.83, "unit": "h"},
      {"measurement": "C0", "setting": "[1]; IV 3 µg/kg, NCA, initial concentration", "value": 9.96, "unit": "ng/mL"},
      {"measurement": "Cmax", "setting": "[1]; IV 3 µg/kg, NCA, maximal concentration", "value": 8.7, "unit": "ng/mL"},
      {"measurement": "MRTlast", "setting": "[1]; IV 3 µg/kg, NCA, mean residence time to last measured concentration", "value": 36.87, "unit": "h"},
      {"measurement": "AUC%Extrap (%)", "setting": "[1]; IV 3 µg/kg, NCA, percentage of extrapolated area", "value": 1.39, "unit": "%"},
      {"measurement": "Tmax", "setting": "[1]; IV 3 µg/kg, NCA, time at maximal concentration", "value": 0.5, "unit": "h"},
      {"measurement": "VZ", "setting": "[1]; IV 3 µg/kg, NCA, volume of distribution", "value": 4.50667, "unit": "L/kg"},
      {"measurement": "Vss", "setting": "[1]; IV 3 µg/kg, NCA, volume of distribution at steady state", "value": 4.40632, "unit": "L/kg"},
      {"measurement": "half-life", "setting": "[1]; IV administration", "value": 27.8, "unit": "h"},
      {"measurement": "Reticulocyte (×10^9/L) 0d", "setting": "B6D2F1 mice; i.p. 1.25 µg/kg, 0d (before drug administration)", "value": "228. 40 ×10^9/L"},
      {"measurement": "Reticulocyte (%) 7d", "setting": "B6D2F1 mice; i.p. 1.25 µg/kg", "value": 4.78, "unit": "%"},
      {"measurement": "RBC Increase (%)", "setting": "B6D2F1 mice; i.p. 1.25 µg/kg", "value": 15.03, "unit": "%"},
      {"measurement": "Reticulocyte (×10^9/L) Increase (%)", "setting": "B6D2F1 mice; i.p. 1.25 µg/kg", "value": 98.51, "unit": "%"},
      {"measurement": "Reticulocyte (×10^9/L) 0d", "setting": "B6D2F1 mice; i.p. 2.5 µg/kg, 0d (before drug administration)", "value": "143. 50 ×10^9/L"},
      {"measurement": "RBC(×10^6/µl) 7d", "setting": "B6D2F1 mice; i.p. 2.5 µg/kg", "value": "12. 16 ×10^6/µl"},
      {"measurement": "Reticulocyte (%) 7d", "setting": "B6D2F1 mice; i.p. 2.5 µg/kg", "value": 4.05, "unit": "%"},
      {"measurement": "RBC Increase (%)", "setting": "B6D2F1 mice; i.p. 2.5 µg/kg", "value": 37.25, "unit": "%"},
      {"measurement": "Reticulocyte (×10^9/L) Increase (%)", "setting": "B6D2F1 mice; i.p. 2.5 µg/kg", "value": 242.79, "unit": "%"},
      {"measurement": "Reticulocyte (×10^9/L) 0d", "setting": "B6D2F1 mice; i.p. 5 µg/kg, 0d (before drug administration)", "value": "134. 10 ×10^9/L"},
      {"measurement": "RBC(×10^6/µl) 7d", "setting": "B6D2F1 mice; i.p. 5 µg/kg", "value": "12. 01 ×10^6/µl"},
      {"measurement": "Reticulocyte (×10^9/L) 7d", "setting": "B6D2F1 mice; i.p. 5 µg/kg", "value": "1548. 00 ×10^9/L"},
      {"measurement": "RBC Increase (%)", "setting": "B6D2F1 mice; i.p. 5 µg/kg", "value": 31.26, "unit": "%"},
      {"measurement": "RBC(×10^6/µl) 0d", "setting": "B6D2F1 mice; [2]", "value": "10. 43 ×10^6/µl"},
      {"measurement": "Reticulocyte (×10^9/L) 0d", "setting": "B6D2F1 mice; [2]", "value": "194. 70 ×10^9/L"},
      {"measurement": "RBC(×10^6/µl) 7d", "setting": "B6D2F1 mice; i.p. 20 µg/kg", "value": "13. 55 ×10^6/µl"},
      {"measurement": "Reticulocyte (×10^9/L) 7d", "setting": "B6D2F1 mice; i.p. 20 µg/kg", "value": "2347. 00 ×10^9/L"},
      {"measurement": "RBC Increase (%)", "setting": "B6D2F1 mice; i.p. 20 µg/kg", "value": 29.91, "unit": "%"}
    ]}
  ]
}
